Reference: the supplement of paper PMC10567573

B1: BTBD1 (parent)
chain: FVLGKGRGAAAAGGPQRIPAHRFV
B2: KRT13 (parent)
chain: KTIEELRDKILTATIENNRVILEI

Variants of: B1
Experiment: protein stability index of a GFP-peptide fusion (GPS, HEK-293T) (PSI 1-6); higher = more stable
Details: c terminus: a fixed tail appended
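Note: lentivirally expressed fusions sorted by FACS into six bins by GFP to DsRed ratio, PSI derived from sequencing read proportions per bin multiplied by bin number.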

Protein stability index: each site, then its substitutions
K5: F 1.95, A 1.2, Q 1.8, N 2.04, Y 2.95, V 1.38, P 1.74, L 1.59, M 2.82, D 1.89, C 1.66, T 2.85, R 2.08, S 1.98, I 1.75, H 1.95
G13: I 2.25, R 1.41, M 2.07, S 2.15, Y 1.57, V 1.36, E 2.31, P 1.75, N 2.57, F 1.3, Q 2, L 2.14, D 2.24, K 1.16, H 1.71
G8: V 1.39, K 2.02, P 1.55, F 1.5, I 2.26, D 2.13, S 1.2, L 1.69, H 2.31, E 2.01, T 2, Q 1.48, A 1.33, R 1.78, Y 1.44, N 1.62
A10: W 1.98, I 1.52, D 1.64, Q 2.03, P 1.95, Y 1.79, K 2.08, S 2, L 1.46, T 1.91, N 1.96, E 1.67, C 1.36, V 1.43, R 1.91, M 1.34, H 1.68, F 2.27
G6: A 1.97, N 2.1, S 1.44, V 1.69, R 1.78, H 1.67, K 1.69, Y 3.51, L 2.69, P 1.82, E 2.1, I 2.4, T 1.61, D 1.88, F 1.02, M 1.38, Q 1.91
Q16: I 2.2, R 1.9, M 2.2, N 2.54, P 1.86, D 1.41, T 1.39, S 1.9, A 1.6, V 2.31, E 1.67, G 1.87
L3: E 1.56, M 1.92, I 1.68, G 1.61, H 2.63, A 2.17, T 2.01, S 3, W 1.14, Y 1.79, D 2.2, N 2.12, Q 1.3, V 1.61, C 1.67, F 1.61, K 2.2
G4: V 2.3, P 2.59, F 2.27, K 1.64, C 1.54, A 1.73, R 2.33, W 1.2, D 1.53, H 2, T 1.46, Y 2.21, M 1.38, Q 1.4, I 1.98, L 2.39, E 1.94, N 2.36, S 1.61
A12: Y 1.16, W 2.86, D 1.91, N 1.78, M 1.52, G 2.21, K 1.82, Q 1.43, E 1.84, C 2.54, L 1.38
A9: C 2.47, L 3.31, F 1.28, E 2.72, K 1.92, H 2.08, D 2.35, T 1.96, I 1.94, N 1.95, S 1.57, V 2.21, G 1.72, Y 1.87, P 1.6
R7: S 2.24, T 2.23, D 1.49, H 1.7, W 3.44, V 2.06, N 1.32, P 1.98, E 1.48, L 3.04, I 2.15, Y 1.72, K 1.17, Q 1.82, F 1.27, C 3.48, M 2.03
R17: F 1.28, E 2.13, I 3.15, C 1.9, D 2.54, K 2.01, H 1.86, L 2.01
F1: L 2.51, W 1.95, I 1.91, H 3.4, R 3.35, M 2.29, N 3.31, G 3.51, K 2.99, A 2.66, Y 1.26, S 2.92, C 2.22, V 2.21, P 3.04, D 3.02, Q 3.28, T 3.32
P15: D 1.86, W 1.03, Y 1.49, K 1.06, L 1.43, R 1.99, V 1.43, N 1.52, C 3.79, H 1.85, S 1.7, M 2.08, T 2, Q 1.5, E 1.81
A11: H 1.96, E 1.94, F 1.04, D 1.14, V 1.28, Y 1.63, I 1.87, P 1.5, W 2.84, M 1.73, T 1.52, N 1.71, S 2.58, L 1.31, C 2.71, K 1.77, R 1.41
V2: H 2.22, I 1.68, Q 3, N 3.23, F 1.67, S 3.35, W 1.76, E 3.38, T 2.35, A 1.99, M 2.21, K 2.85, Y 1.8, G 2.74, L 1.97, C 2.18, D 2.88
G14: D 2.64, V 1.9, H 1.87, C 2.08, S 2.64, Q 2.88, I 1.26, R 1.04, N 1.93, Y 1.07, M 1.88, L 2.15, K 2.83

Variants of: B2
Experiment: as above
Details: c terminus: a fixed tail appended

Protein stability index: each site, then its substitutions
I24: C 2.44, N 2.64, M 1.9, A 2.65, Q 2.44, G 2.63, H 1.93, K 3.08, L 3.35, P 3.4, T 1.73, R 1.98, V 2.97, W 2.09, D 3.09, S 1.92, F 3, E 2.65, Y 2.16
E23: P 2.08, Y 2.07, Q 2.47, R 2.55, S 2.78, H 2.05, G 2.06, F 4.41, M 3.54, D 2.45, K 1.25, T 2.79, A 1.85, I 2.71, W 2.9, L 2.42, V 3.08
V20: W 3.15, Y 1.78, T 2.33
L22: T 1.93, N 2.83, P 3.33, S 2.1, V 2.97, R 2.14, A 2.2, F 3.35, D 2.84, G 1.8, K 2.38, Y 2.83, C 2.8, Q 2.88, M 2.2, H 2.52, E 3.14
I21: D 2.43, H 2.49, P 2.44, T 1.47, N 1.64, M 2.18, K 1.74, R 2.49, L 2.52, Y 2.79, V 2.6, F 3.3, Q 1.94, S 1.55, G 1.62, C 2.42, E 2.19
